Measurements taken from the Human Domainome abundance scans (Beltran et al. 2025).
± gives the uncertainty stated by the source.

B1: REST corepressor 3, residues 87 to 134; numbered along this chain, Q9P2K3 (parent)
chain: DEWTVEDKVLFEQAFSFHGKSFHRIQQMLPDKTIASLVKYYYSWKKTR

Variants of: B1
Experiment: abundance fitness (aPCA) (normalised: wild type 0, dead -1); higher = more abundant; growth selection in yeast, the domain comes from the species named
Conditions: Homo sapiens

Abundance fitness of substitutions, site by site:
Q13: I -0.56 ± 0.23 | D -0.644 ± 0.46 | G -0.948 ± 0.23 | K -0.458 ± 0.26 | H -0.234 ± 0.4 | W -0.742 ± 0.23 | S -0.584 ± 0.21 | A -0.389 ± 0.18 | F -0.614 ± 0.22 | E -0.288 ± 0.2 | R -0.46 ± 0.16 | M -0.101 ± 0.29 | C -1.02 ± 0.46 | L -0.679 ± 0.18
E12: A -0.582 ± 0.29 | R -1.01 ± 0.48 | I -0.24 ± 0.29 | Q -0.528 ± 0.46 | L -0.476 ± 0.39 | D -0.07 ± 0.23 | T -0.252 ± 0.27 | V -0.801 ± 0.22 | G -0.708 ± 0.31 | S -0.822 ± 0.33 | K -0.643 ± 0.34
F11: S -0.736 ± 0.27 | V -0.812 ± 0.2 | P -0.834 ± 0.39 | D -0.873 ± 0.44 | G -0.768 ± 0.23 | E -0.769 ± 0.36 | L -1.14 ± 0.36 | C -0.265 ± 0.26 | A -0.715 ± 0.19
L37: G -0.835 ± 0.19 | D -0.465 ± 0.47 | A -0.673 ± 0.31 | E -0.628 ± 0.36
M28: S -0.517 ± 0.19 | F -0.502 ± 0.46 | G -0.806 ± 0.25 | P -0.733 ± 0.31 | E -0.616 ± 0.3 | K -0.686 ± 0.19 | T -0.461 ± 0.39 | H -0.364 ± 0.44 | Q -0.429 ± 0.48 | W -0.589 ± 0.23 | Y -0.635 ± 0.47 | A -0.382 ± 0.2 | L -0.558 ± 0.15 | R -0.618 ± 0.2
H23: Y -0.702 ± 0.47 | C -0.649 ± 0.48 | Q -0.258 ± 0.25 | N -0.124 ± 0.33 | S -0.092 ± 0.17 | K 0.381 ± 0.2 | A -0.164 ± 0.14 | D -0.517 ± 0.41 | W -0.56 ± 0.21 | G -0.642 ± 0.17 | R -0.407 ± 0.13 | E -0.07 ± 0.15 | V -0.3 ± 0.15 | P -0.331 ± 0.18
S21: N 0.349 ± 0.16 | H -0.185 ± 0.27 | G -1.12 ± 0.42 | A 0.221 ± 0.12 | W -0.107 ± 0.16 | V -0.323 ± 0.21 | R 0.233 ± 0.11 | E 0.261 ± 0.13 | C 0.164 ± 0.15 | Q 0.303 ± 0.15 | M -0.344 ± 0.21 | D 1.11 ± 0.23 | L -0.63 ± 0.23
R24: G -0.74 ± 0.37 | S -0.465 ± 0.38 | V -0.508 ± 0.18
F22: K -0.551 ± 0.38 | M -0.55 ± 0.21 | V -0.809 ± 0.25 | Y -0.424 ± 0.43 | S -0.897 ± 0.33 | G -0.739 ± 0.16 | L -0.693 ± 0.21 | W 0.52 ± 0.099 | R -1.07 ± 0.27 | A -0.692 ± 0.23
F17: H -0.207 ± 0.47 | S 0.262 ± 0.12 | E 0.376 ± 0.13 | P -0.537 ± 0.46 | W -0.61 ± 0.28 | C -0.853 ± 0.45 | K 0.207 ± 0.14 | Y -0.592 ± 0.37 | L -0.206 ± 0.12 | G -0.793 ± 0.25 | T 0.36 ± 0.11 | A -0.307 ± 0.17 | N -0.208 ± 0.43 | R 0.137 ± 0.083 | I -0.055 ± 0.23 | Q -0.654 ± 0.33 | M -0.553 ± 0.28 | D 0.259 ± 0.29
S36: V -0.761 ± 0.2 | A -0.504 ± 0.2 | D -0.219 ± 0.4 | C -0.008 ± 0.25 | H -0.241 ± 0.31 | Q 0.116 ± 0.12 | P -0.852 ± 0.32 | K -0.627 ± 0.37 | G -0.167 ± 0.093 | T -0.347 ± 0.2 | M -0.288 ± 0.16 | W -0.825 ± 0.42 | L -1.04 ± 0.39 | R -0.478 ± 0.21
K32: F -0.814 ± 0.11 | S -0.972 ± 0.096 | W -0.945 ± 0.13 | I -0.978 ± 0.13 | P -0.742 ± 0.095 | Q -0.888 ± 0.18 | D -0.903 ± 0.12 | N -0.776 ± 0.093 | T -0.819 ± 0.093 | E -0.836 ± 0.15 | G -0.89 ± 0.075 | R -0.473 ± 0.062 | Y -0.885 ± 0.12 | L -0.673 ± 0.071 | A -0.854 ± 0.097 | V -0.93 ± 0.07 | M -0.799 ± 0.13 | H -0.45 ± 0.069 | C -0.816 ± 0.085
K20: L -0.665 ± 0.24 | C -0.337 ± 0.34 | A -0.343 ± 0.28 | W -0.551 ± 0.33 | G -0.278 ± 0.14 | M 0.033 ± 0.22 | E -0.353 ± 0.33 | P -0.704 ± 0.47 | S -0.393 ± 0.17 | T -0.399 ± 0.37 | R -0.544 ± 0.19 | N -0.306 ± 0.27 | V -0.737 ± 0.36
S16: W -0.568 ± 0.25 | A -0.077 ± 0.12 | T -0.427 ± 0.2 | E 0.339 ± 0.13 | Q -0.084 ± 0.36 | R -0.014 ± 0.1 | M -0.167 ± 0.26 | I -0.554 ± 0.48 | C -0.607 ± 0.25 | G -0.081 ± 0.1 | K -0.22 ± 0.26 | P -0.579 ± 0.39 | V -0.393 ± 0.14 | L -0.257 ± 0.15 | D 0.149 ± 0.12 | Y -0.391 ± 0.38
A35: H -0.214 ± 0.14 | F -0.098 ± 0.069 | K -0.124 ± 0.14 | P -0.345 ± 0.17 | G 0.045 ± 0.044 | C -0.401 ± 0.12 | T 0.073 ± 0.1 | D -0.391 ± 0.28 | R -0.016 ± 0.047 | L -0.113 ± 0.061 | Q -0.258 ± 0.15 | Y -0.451 ± 0.23 | I -0.062 ± 0.046 | M -0.203 ± 0.11 | W -0.439 ± 0.12 | N -0.145 ± 0.15 | V -0.545 ± 0.11 | E 0.308 ± 0.12
Q26: S -0.79 ± 0.24 | L -0.648 ± 0.17 | C -0.172 ± 0.14 | G -0.757 ± 0.24 | R -0.232 ± 0.11 | V -0.692 ± 0.26 | K 0.249 ± 0.12 | F -0.595 ± 0.46 | Y -0.428 ± 0.33 | M -0.438 ± 0.2 | W -0.82 ± 0.45
I34: H -0.73 ± 0.37 | M -0.255 ± 0.062 | E -0.455 ± 0.14 | A -0.845 ± 0.15 | N -0.267 ± 0.34 | F -0.036 ± 0.31 | S -0.677 ± 0.057 | R -0.374 ± 0.043 | P -1.08 ± 0.36 | C -0.869 ± 0.2 | G -0.767 ± 0.11 | Q -0.768 ± 0.1 | L -0.419 ± 0.13 | V -0.747 ± 0.22 | D -0.437 ± 0.4 | T -0.644 ± 0.16 | Y -0.508 ± 0.38 | K -0.67 ± 0.38
P30: A -0.811 ± 0.29 | H -0.498 ± 0.46 | L -0.928 ± 0.38 | M -0.891 ± 0.48 | W 0.322 ± 0.29 | G -0.957 ± 0.33 | F -0.182 ± 0.22 | V -0.726 ± 0.22 | E -0.563 ± 0.25 | S -0.851 ± 0.5 | Q -0.716 ± 0.36 | K -0.177 ± 0.46
I25: D -0.531 ± 0.28 | F -0.838 ± 0.45 | Y -0.522 ± 0.28 | T -0.713 ± 0.33 | L -0.358 ± 0.15 | P -0.568 ± 0.25 | S -0.945 ± 0.34 | E -0.693 ± 0.35 | A -0.567 ± 0.2 | G -0.903 ± 0.3 | V -0.74 ± 0.2 | K -0.54 ± 0.38 | R -0.975 ± 0.29 | M -0.708 ± 0.45 | H -0.692 ± 0.44
H18: N -0.785 ± 0.31 | T -0.39 ± 0.32 | L -0.731 ± 0.27 | G -0.764 ± 0.25 | S -0.706 ± 0.35 | W -0.894 ± 0.47 | Q -0.895 ± 0.45 | V -0.974 ± 0.44 | I 0.283 ± 0.34 | Y -0.05 ± 0.19
A14: I -0.655 ± 0.44 | S -0.993 ± 0.36 | Y -0.578 ± 0.38 | G -0.73 ± 0.18 | L -0.392 ± 0.19 | R -0.635 ± 0.2 | F -0.453 ± 0.33 | T -0.609 ± 0.31 | E -0.811 ± 0.46 | K -0.393 ± 0.41 | W -0.664 ± 0.21 | C -0.71 ± 0.29
F15: P -0.881 ± 0.26 | W -0.637 ± 0.34 | K -0.585 ± 0.32 | R -0.675 ± 0.2 | T -0.604 ± 0.45 | V -0.392 ± 0.12 | C 0.29 ± 0.27 | S -0.632 ± 0.25 | G -0.731 ± 0.18 | L -0.658 ± 0.25
G19: V -0.805 ± 0.43 | D -0.487 ± 0.45 | S -0.487 ± 0.3
T33: G -0.265 ± 0.1 | W -0.693 ± 0.19 | V -0.776 ± 0.2 | Y -0.708 ± 0.38 | S -0.385 ± 0.14 | A -0.55 ± 0.11 | Q -0.658 ± 0.23 | K -0.109 ± 0.19 | L -0.686 ± 0.19 | D -0.354 ± 0.28 | H -0.781 ± 0.36 | E -0.647 ± 0.27 | N -0.508 ± 0.38 | P 0.275 ± 0.1 | R -0.688 ± 0.16 | C -0.805 ± 0.26
L29: F -0.302 ± 0.24 | I -0.315 ± 0.43 | R -0.771 ± 0.24 | Q -0.692 ± 0.3 | C -0.795 ± 0.46 | W -0.932 ± 0.35 | G -0.794 ± 0.2 | A -0.832 ± 0.27 | K -0.645 ± 0.44
D31: E 0.026 ± 0.17 | I -0.733 ± 0.43 | N -0.337 ± 0.46 | V -0.517 ± 0.14 | Y -0.027 ± 0.3 | C -0.45 ± 0.22 | H -0.295 ± 0.3 | G 0.029 ± 0.073 | K -0.136 ± 0.21 | A -0.429 ± 0.13 | T -0.316 ± 0.25 | L -0.314 ± 0.13 | S 0.225 ± 0.091 | R -0.253 ± 0.13 | P -0.621 ± 0.33 | W -0.539 ± 0.23
Q27: L -0.326 ± 0.14 | S -0.482 ± 0.16 | A 0.069 ± 0.14 | G -0.673 ± 0.2 | K -0.419 ± 0.29 | I -0.924 ± 0.21 | V 0.395 ± 0.082 | M 0.449 ± 0.13 | T -0.406 ± 0.23 | D -0.62 ± 0.38 | C -0.752 ± 0.41 | R -0.244 ± 0.13
